This note sets out measurements from the domain aggregation screens of Martell et al. (2025).

This data set in a line: soluble fraction after stress (log2 fold change); higher = more stays soluble; pooled small domains, quantitative proteomics. The note with it: stress: pH 4. The method, boiled down:
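Pooled custom libraries of small protein domains were stressed at pH 4 and then measured by high-throughput quantitative proteomics. The fold change in the amount of each domain that stays soluble after the acid stress serves as a measure of aggregation propensity. Fold changes are given on a log2 scale, and higher values mean more of the domain stayed soluble.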
For the sequence “HMIMTIYEYIARNNPTGAKRVIESFGYVVTQPKKMGDNLRMLVAQEGEPALKAVVDLHPDKDLILEV”, the “soluble fraction (log2)” value is -1.93. Under “HMINAQETEIYRFLIEKANRLYSMVLGLKREELMTATRQFEEEVKHSSIHHLPKIYQAFSSYLELLERG” stands -0.207; under “HMINDKLQHLFSLFPAMDKELKRKGITRQILWVEYKKQYPLGFGRSQFNSYFAAWKAQVSPS”, 0.204; under “HMINFLSKREIEVLRLVADGLSNRDVGQYLFISESTVKRHLSTIYEKLAVKSRTQAIDHARRADL”, -1.39. Under “HMINGTITFYDDTTLKGELSSLDTKYLFIIPNGLVMPEKIAVSDIEYFNLDNGITLIQDGISKQTY” stands -1.11. As for “HMINLGDLEVGHTYHTRMPILQNDLKYSHKSPIQIVAEHSIVYGVRVYIGFLNEHRVLVTADDV”, the “soluble fraction (log2)” value was -0.269. Under “HMINLRTALNNAGVMQKELSDILYMTPQDVNRRFSGVTKWKPLEKRAIMQFLEDRGFEYTEEQLF” stands -0.883.

On to “HMINLVPFELKFITAQVLDDIIKKIGINADTIILDINPKKIWVYAGEQELSDIQNIVKNVDVEDNI”, for which the “soluble fraction (log2)” value was -2.17. For “HMINVLTPKQIEATTIAVKYGYYENPRTVSMRELSEISGIARSTLQEHLSKAEAALMILAAKSQL”, the “soluble fraction (log2)” value is -0.0956. In the case of “HMINVVDEVIKHLETNIISGFWAPGQKIDSEATLSKQLNVSRASIHTAIQQLIATGVLESFQGKGTFVRS”, the “soluble fraction (log2)” value was -0.226.

On to “HMIPDGKWKEDPISDGQKNFINSLIEQAIDAGQDELGAEAKKYLASGEATKGNASAMIDKLKSAL”, for which the “soluble fraction (log2)” value is 0.398. In the case of “HMIPDMSLELAMSEQTSKGDLYGDLPNDKLALMFNAISKKVPHTDDHKRKMVAIQTILESRAS” it was 0.0127; in that of “HMIPEGKWMEDPISEGQIKFIETLIKQAIDSGQDALGAEAKQYLSSGEATKGNASSMIDKLKDAL”, -0.479; in that of “HMIPEILNGYTKWGDDEPFEDHAGPFYMKMMPSTGRHLSAFIPEQRHMNGGGFLHGGMLMSFADYALFVI”, -0.491. Under “HMIPEKEISYMMPDGFMPKELKIIHITESGRKQIYSAAHKPLDLVNVKAPFVPNTKVQIYINDVPIEELKI” stands -0.739; under “HMIPKDKQAWIALTYIYGVGRTTSMEILKKAQVGEEIRMKDLTEEEVTRIRNIIDKEYEVEGDLRRN”, -0.762; under “HMIPNEKEAARWDALTAEHTAKLNALEGDALDKVGSHEDVSIKRAGVGDAAFREKILSRTHPDDLERALST”, 0.3.

For the sequence “HMIQHFARKRRQLELAVQRLSGRMAETNGQVTADMQRLIQQVKALVAELSHVFSRAYLRRVLGGVALVIGS”, the “soluble fraction (log2)” value was -0.145.

As to “HMIQLTDAEFNELVTYIKKNYGINLIKKRLLIEARMYSVLAKHGFTSFTEYINLIKRDPAELNTMLNKLTT”, the “soluble fraction (log2)” value came out at 0.126. Under “HMIQMRVKVPKNIAGGSLMGAHHFVKSALARTNPGGSTSNYKIQATDGTPLTLGDLTARQYDEVLIISG” stands -0.617. In the case of “HMIQTKKVTFTVEPTVNFEKINISGIEFKINSGSSITAIYEKNSHNFDEVLDFLKQKGVKILDIVTED” it was -0.824. Under “HMIRILIVDDSAFMRKLLSDVFEEDKNFVVVDTARNGQDAVEKVKRLKPDLVTMDVEMPVMDGLTAVEIIM” stands -1.12; under “HMIRSNLAEQAYAQLKALIHDFQLLPGDRFSENEMGTRLGVSRTPVREALFRLRNEGFLEVESKAGWYVK”, -1.73. “HMISAADLQTYLKGMDYPAGREDLVAHAQRNNAPESVITILQGFSDRTYRSAAEVSEEFGRE”: the “soluble fraction (log2)” value was -0.371. In the case of “HMISADSSKVDTLVQVYSNMKPIQAAQVFEKMDEDLVIEILSRMKKKNAADILNLIKTEKAQVFAEKYA”, the “soluble fraction (log2)” value is -0.0774. In the case of “HMISAEPVGEDLFKVAFPFLGGSTVFEKTIEQFIEEHPSKRIDHIYTVPNPLRLKKADALIFYIITEEK” it was -1.12. In the case of “HMISASDLQTYLKGMDYPARKEDLIVHAQRNNAPESVIAAIRQFSDRTYQSAADVSEEFGKI” it was -0.468; in that of “HMISDEELLVSTKKEIMSLATVLTKTDKKDDAIAIMKEYDPAANPNRIKDVNKAKELLERLQKLG”, -0.104.

For “HMISDISEIEAIIVEVLKVFPNQLQEYLDGKEKILSFFVGQVMQRTKGRANPSLVNEILKEKIKN”, the “soluble fraction (log2)” value is -0.417. For “HMISEAEGTILQLLKEADGTLPFTYKSDADEIKKVFGMSKKNFKRTLTELIEAKKIQLLDDAIVL”, the “soluble fraction (log2)” value is -0.0222. Take “HMISEKEIKIIEDILARWNGKLTWDDFTSKVAKKLNLPSLSKFTLMGYPEIKQAFLTRKQTLK”: the “soluble fraction (log2)” value is -0.382.

As for “HMISENFVEAKILLTEDNRPKSLEILKDIIRQHDKVYSPLSLFLILDEDLEENKEIILEYFDLVLS”, the “soluble fraction (log2)” value is -1.38. In the case of “HMISESLLDEIPGLGETRRNSLLREFGSVAMIRKASAEEIASRVRGIGAEFAAAIHDFLQTH” it was 0.0801; in that of “HMISFHEYLTQLLDEKGLTKAQVITDSNIQKNYGYQIFDGSKTPSRDKVIAIALAMQLTLDEANRLLHLSN”, -0.618; in that of “HMISFTDLEHIEKMIENVLYTKTPLNLPPTDAKIRKIEHQIARRYGLNSESFGDEPRRFVVVYPNEERE”, 0.0997. In the case of “HMISKAQLFSEEELTELYRATGYQLENDPEIHREQFEALQAVRAKIEYAVPDVQEKLEQEQNLGQQ” it was -1; in that of “HMISKRFQVDEENSNNRVDIFLANNLDSISRGIVQQLILDGKVLVNGETVKRNHLLKTNDEVDISFEI”, 0.0466; in that of “HMISRDPYDAGAIKRHFSASGLFSSKELAHYLGKSVSTAKNVLSDLQQQGIVEMVGQGPATKYRFI”, 0.285. “HMISSRDAAVIGLVENIQRAQLNAIDESSGFKHLMETYNLESKEIALLVGKSRSYVSNSLRLSK”: the “soluble fraction (log2)” value is -0.235. In the case of “HMISTVFYVDVKGEVHHPGVYQMKAENRVKDLIEAAGGFTPLADDQKLNLAQLLEDQMVIVVPKKGEEV” it was -0.221; in that of “HMISVTNRTGTGLNDVKVEVFPVGRQMVFSATVFRVESEATNRFSLGELRGSDGTPFNQRVHRPESI”, -0.07. Under “HMITAEQENILFEKASDDISNNIINKGIWTKAYSQAGGDESKQKAIYIDLLVNYYKMLIKAGEEFEDI” stands -2.05; under “HMITALLPGTVLIREFDGRDYHVTVATDGRFEMDGHKYPSLSAVAKHITGTQWSGPAFFGLN”, -0.0323; under “HMITASNYFIEVERIGIETLPETLKKGHDLVVKSTSNGTNWANYQTSEGIKKVIDLYFQKLNEYANTV”, -1.57.

As to “HMITDSSEIEAMVDALVKENPGQAEQYKDGNMKVAGWFIGQIMKVSKGKANPQLVGDLLKKKLG”, the “soluble fraction (log2)” value was not below 0.43. In the case of “HMITERVPVPDLTGMPLMEAIKTLNSSKLQYQVVGSVIEGDENRIIDQTPKPDIMVSEKSIVLLYLETYRG” it was -0.338; in that of “HMITIDADTGKRVYTRKEVADLVGASTQSIRLWEDAGAIPASVRDEGGYRYWYEEDLEAIKAYAS”, -0.411; in that of “HMITKAIELAEEAEKETVWLGVWEHNHPAQKFYQSLGFVKTDEHDFYMGNERHTDYTMTKQLK”, -0.958.

For “HMITLKKRRQEAILEIIEKYDLSTQDELLQKLKDSGFDATQATVSRDIKELRLVKTMGANGQYKYAVT”, the “soluble fraction (log2)” value was -0.735. In the case of “HMITMADKIDTALSEMAANNEKINVSQVAKRLGISNSAIYKFNPEKIPDIQTAQKRQKHKAEAIAVGTEN” it was 0.0504; in that of “HMITMWYYKKDGNIIGPASARKIASMRELGIITDSTPVSRKRNAKNWETFGGLSEKINLESSQWD”, 0.0852. Turning to “HMITNEDINIKKLLVVMKDTPLSANEIMDKLNIKSKETLRNMYLDPAIKKGLINLTIPDKPTSKNQKYYK”, the “soluble fraction (log2)” value was 0.22. Regarding “HMITNESEIERIVEAIISKNPESIAQYRSGITKVLGFLVGQVMKETKGRANPALVNRIIISKME”, the “soluble fraction (log2)” value was found to be 0.242. Take “HMITSELALVKLVVKGANRVEALRVAETFRARALDVTLSSFVFELTGKPSKLDAFIGLMRSLGDTEILKR”: the “soluble fraction (log2)” value is -1.02.

Turning to “HMIVEIVPSALHGERVDRIVAFILDVSRSVASGLVERGAVHVDGSVETSGKVRLVEGQEVSVDPSQVPG”, the “soluble fraction (log2)” value is -0.528.

Consider “HMIVNEQEQTFIKAMRDDDFNTILELKMKGYQPSDNVLKSLQPDISSTTFIAAAKIFQMERMLK”, for which the “soluble fraction (log2)” value is not below 0.43. In the case of “HMIVSVPNVRGMGESKAAAALQNRGLLVSIDYESSTSASQGEVIRQSISPGTEVTKGSSITIIIAVSPN” it was -0.0228; in that of “HMIVVMQPGATKEQVQAVIDRVAEFGFQTKLAPGAERMVIGVVGSPLPDTLKEALERLPGVEEVIRVSKR”, -0.0989; in that of “HMIVVTSPQVTDERIAEIVAFIEKHGVQAHVSRGTDRTVIGIIGKADPVLAEHLRSMQGVENVIKIS”, -0.126. Turning to “HMIYKLTLLRDLPEAKAGFDFYLRGGLASHDGEEWFSWVTREPIYARLYWLYVEKREEWVLVEETDI”, the “soluble fraction (log2)” value was -2.47.

“HMIYMIDPNDEIAVKLDEIYQRYLNRTIDPEGLIFFYNQIRNAQMGYSDVEKRILESPEYVSIPK”: the “soluble fraction (log2)” value is -1.23. In the case of “HMIYQNVINLLKNRLNSSIYNIGDLLPSEKELAEHYDVSRNTLRKALKTLEEEGMIERRHGSGTYLRNK” it was 0.0262; in that of “HMIYWGTMVDKIYEVLSLAGKPLSLMEIYQQVKVFFPNSTKSSIEASMRLDARHRFKYDVEGHVYSLVD”, -0.368; in that of “HMIYYTEEELVKRYIDFSNYLGKKEGASDVDFKKYAVEFGIPSRDHYNRKFITLFNLKIKAGYKPIRH”, -1.13. Under “HMKAAQDQDQAATLLQKATGVNQDQAKLAATVLFKEQSVTPIRQAIASGDYYQAYQDAKSLQQQ” stands 0.22. Under “HMKADIEQVQRAFDTLDPKNQQLVLDAMKAATAELDPNSDQFKTNTEFINDNQKALDRHAKAS” stands 0.0627. On to “HMKAGAVFNEGDVLYPKIGGLKLMAAAGEGGKVVATLAKTDEMIYMGEEQSGFVKVESGSGSGWVKKILVA”, for which the “soluble fraction (log2)” value amounted to 0.202. In the case of “HMKAGEDAVQKAVLEAVAESAAAVADYKAGSERALNFIVGKVMKKTRGKASAAEVHRLVREEVDR” it was 0.079.

Consider “HMKAILHQESRSGFANATVIGGLDKFLDTNWNQLSKYIKKIETPYSDRSLEDRKIWISTILGILSTEI”, for which the “soluble fraction (log2)” value was found to be 0.136.
